Earlier results, collected in US7514409B2, “VLA-4 antagonists” (Merck & Co., Inc., priority 2004, dated 2009).

Biological target: T1, VLA-4 (Homo sapiens, UniProt P13612)
T1 construct: host or cells: circulating VLA-4-bearing leukocytes of trial subjects (in vivo)
Settings: early clinical trials

lymphocytosis (a surrogate marker for blockade of VLA-4 function): observed | receptor occupancy: > 80%
Substance: natalizumab: humanized monoclonal antibody against α4
